The results in this text go back to US20210009657A1 (THEACHON, published 2021).

For test [1], the target named is T1, Aggrecan (R&D systems #1220-PG-025) (UniProt P16112 20-675).
T1 construct: Coated on the ELISA plate at 10 ug/mL
Briefly: ELISA, aggrecan coated on plate, detection with anti-FGFR3 antibody. As for the experimental part:
ELISA plate were coated with 10 μg/mL of Aggrecan (R&D systems #1220-PG-025) in a final volume of 50μI per well and incubated overnight at room temperature. Plate were blocked with 300μI of PBS 1% BSA per well during 1 h at room temperature. Different amount of protein (0 to 100 µl ) were incubated for 1 h at room temperature. Specific detection antibody against FGFR3 from an R&D system ELISA kit (#DYC766E) was used to detect recombinant protein fixed to aggrecan as recommended by the manufacturer.

For test [2], the target named is T2, human FGF2 (human, UniProt P09038 143-288).
T2 construct: also called hFGF2; Fibroblast Growth Factor 2
T2 sequence (P09038 143-288 limits assumed): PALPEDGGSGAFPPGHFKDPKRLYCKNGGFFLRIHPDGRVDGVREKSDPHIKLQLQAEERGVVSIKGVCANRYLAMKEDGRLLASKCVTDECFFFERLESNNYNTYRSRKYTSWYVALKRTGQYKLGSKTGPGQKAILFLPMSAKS
Kind of test: fixed FGF2 incubated with increasing decoy, unbound FGF2 by ELISA. As to the method:
Fixed amounts of human FGF2, or human FGF9 (R&D Systems) were incubated for 2 h at 37° C. with increasing doses of each recombinant protein (0 to 250 ng/ml) in PBS 1% BSA. Specific commercial ELISA kits (R&D Systems; Clinisciences) were used to quantify remaining unbound FGFs. 1000 pg/ml or 1200 pg/ml were used for FGF2 and FGF9 respectively based on the sensitivity of the corresponding ELISA kits.

T1 sequence (P16112 20-675 limits assumed): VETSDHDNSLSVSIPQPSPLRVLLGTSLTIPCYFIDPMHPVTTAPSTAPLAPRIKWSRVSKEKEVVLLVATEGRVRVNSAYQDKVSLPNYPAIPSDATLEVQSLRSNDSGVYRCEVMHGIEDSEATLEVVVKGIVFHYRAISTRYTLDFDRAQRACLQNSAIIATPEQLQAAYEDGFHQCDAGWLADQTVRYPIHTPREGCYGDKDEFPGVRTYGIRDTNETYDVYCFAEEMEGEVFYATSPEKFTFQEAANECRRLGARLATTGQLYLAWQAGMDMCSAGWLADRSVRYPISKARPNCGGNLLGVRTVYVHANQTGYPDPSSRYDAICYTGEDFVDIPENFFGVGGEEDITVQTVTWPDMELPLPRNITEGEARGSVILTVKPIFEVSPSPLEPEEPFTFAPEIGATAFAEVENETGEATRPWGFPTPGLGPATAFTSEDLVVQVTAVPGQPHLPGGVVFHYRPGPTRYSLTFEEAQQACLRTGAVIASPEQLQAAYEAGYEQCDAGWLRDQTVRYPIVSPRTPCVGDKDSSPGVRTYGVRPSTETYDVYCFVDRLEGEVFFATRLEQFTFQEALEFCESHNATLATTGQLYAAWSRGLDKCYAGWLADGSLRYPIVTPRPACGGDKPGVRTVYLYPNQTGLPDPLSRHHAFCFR

B1: FLAG-sFGFR3_Del4 (receptor)
chain: DYKDDDDKMGAPACALALCVAVAIVAGASSESLGTEQRVVGRAAEVPGPEPGQQEQLVFGSGDAVELSCPPPGGGPMGPTVWVKDGTGLVPSERVLVGPQRLQVLNASHEDSGAYSCRQRLTQRVLCHFSVRVTDAPSSGDDEDGEDEAEDTGVDTGAPYWTRPERMDKKLLAVPAANTVRFRCPAAGNPTPSISWLKNGREFRGEHRIGGIKLRHQQWSLVMESVVPSDRGNYTCVVENKFGSIRQTYTLDVLERSPHRPILQAGLPANQTAVLGSDVEFHCKVYSDAQPHIQWLKHVEVNGSKVGPDGTPYVTVLKVSLESNASMSSNT
notes: Obtained by site directed mutagenesis of sFGFR3-pFLAG-CMV3 and made in HEK 293 cells; also called Del4 variant
In the case of B1, in test [1], the binding result is on record as “no binding”.

B2: FLAG-sFGFR3_Del4-LK1-LK2 (other)
chain: DYKDDDDKLVDQIPAMGAPACALALCVAVAIVAGASSESLGTEQRVVGRAAEVPGPEPGQQEQLVFGSGDAVELSCPPPGGGPMGPTVWVKDGTGLVPSERVLVGPQRLQVLNASHEDSGAYSCRQRLTQRVLCHFSVRVTDAPSSGDDEDGEDEAEDTGVDTGAPYWTRPERMDKKLLAVPAANTVRFRCPAAGNPTPSISWLKNGREFRGEHRIGGIKLRHQQWSLVMESVVPSDRGNYTCVVENKFGSIRQTYTLDVLERSPHRPILQAGLPANQTAVLGSDVEFHCKVYSDAQPHIQWLKHVEVNGSKVGPDGTPYVTVLKVSLESNASMSSNTSGSGSGSGSGSGSGSVVFPYFPRLGRYNLNFHEAQQACLDQDAVIASFDQLYDAWRGGLDWCNAGWLSDGSVQYPITKPREPCGGQNTVPGVRNYGFWDKDKSRYDVFCFTSNFNGRFYYLIHPTKLTYDEAVQACLNDGAQIAKVGQIFAAWKILGYDRCDAGWLADGSVRYPISRPRRRCSPTEAAVRFVGFPDKKHKLYGVYCFRAYN
notes: Fusion of a soluble FGFR3 fragment with the LK1 and LK2 link domains of human HPLN1; Made in HEK 293 cells; also called FP; fusion protein
Turning to B2, in test [2], the binding result was “binds”.
